# Experimental data from patent US11938198B2, “Treatment of heart disease by disruption of the anchoring of PP2A” (University of Miami, priority 2019, dated 2024).
# Changes are numbered by the printed parent chain. Names and notes keep the numbering of the source.
# B1: human 2085-2319: GFP-fusion fragment of human mAKAP residues 2085-2319 (protein)
# chain: TSLTQIKEKVLEHSHRPIQLRKGDFYSYLSLSSHDSDCGEVTNYIEEKSSTPLPLDTTDSGLDDKEDIECFFEACVEGDSDGEEPCFSSAPPNESAVPSEAAMPLQATACSSEFSDSSLSADDADTVALSSPSSQERAEVGKEVNGLPQTSSGCAENLEFTPSKLDSEKESSGKPGESGMPEEHNAASAKSKVQDLSLKANQPTDKAALHPSPKTLTCEENLLNLHEKRHRNMHR
# modifications: left off: large carriers
# B2: SRF S103D: SRF phosphomimetic mutant expressed by adenovirus (protein, UniProt P11831 1-508, looked up, variant S103D)
# Serum response factor: MLPTQAGAAAALGRGSALGGSLNRTPTGRPGGGGGTRGANGGRVPGNGAGLGPGRLEREAAAAAATTPAPTAGALYSGSEGDSESGEEEELGAERRGLKRSLDEMEIGMVVGGPEASAAATGGYGPVSGAVSGAKPGKKTRGRVKIKMEFIDNKLRRYTTFSKRKTGIMKKAYELSTLTGTQVLLLVASETGHVYTFATRKLQPMITSETGKALIQTCLNSPDSPPRSDPTTDQRMSATGFEETDLTYQVSESDSSGETKDTLKPAFTVTNLPGTTSTIQTAPSTSTTMQVSSGPSFPITNYLAPVSASVSPSAVSSANGTVLKSTGSGPVSSGGLMQLPTSFTLMPGGAVAQQVPVQAIQVHQAPQQASPSRDSSTDLTQTSSSGTVTLPATIMTSSVPTTVGGHMMYPSPHAVMYAPTSGLGDGSLTVLNAFSQAPSTMQVSHSQVQEPGGVPQVFLTASSGTVQIPVSAVQLHQMAVIGQQAGSSSNLTELQVVNLDTAHSTKSE
# B3: SRF S103A: SRF Ser103-to-alanine mutant expressed by adenovirus (protein, UniProt P11831 1-508, looked up, variant S103A)
# Serum response factor: B2 Serum response factor with D103A
# B4: mAKAP 1286-2312: myc-tagged mAKAP construct containing binding sites for PDE4D3, PKA and PP2A (protein)
# chain: VYSLHNVELHEDSHTPFLKSSPKFTGTTQPTVLTKSLSKDSSFSSTKSLPDLLGGSGLVRPYSCHSGDLSQNSGSESGIVSEGDNEMPTNSDMSLFSMVDGSPSNPETEHPDPQMGDAANVLEQKFKDNGESIKLSSVSRASVSPVGCVNGKAGDLNSVTKHTADCLGEELQGKHDVFTFYDYSYLQGSKLKLPMIMKQPQSEKAHVEDPLLGGFYFDKKSCKAKHQASESQPDAPPHERILASAPHEMGRSAYKSSDIEKTFTGIQSARQLSLLSRSSSVESLSPGGDLFGLGIFKNGSDSLQRSTSLESWLTSYKSNEDLFSCHSSGDISVSSGSVGELSKRTLDLLNRLENIQSPSEQKIKRSVSDMTLQSSSQKMPFAGQMSLDVASSINEDSPASLTELSSSDELSLCSEDIVLHKNKIPESNASFRKRLNRSVADESDVNVSMIVNVSCTSACTDDEDDSDLLSSSTLTLTEEELCLKDEDDDSSIATDDEIYEESNLMSGLDYIKNELQTWIRPKLSLTREKKRSGVTDEIKVNKDGGGNEKANPSDTLDIEALLNGSIRCLSENNGNGKTPPRTHGSGTKGENKKSTYDVSKDPHVADMENGNIESTPEREREKPQGLPEVSENLASNVKTISESELSEYEAVMDGSEDSSVARKEFCPPNDRHPPQMGPKLQHPENQSGDCKPVQNPCPGLLSEAGVGSRQDSNGLKSLPNDAPSGARKPAGCCLLEQNETEESASISSNASCCNCKPDVFHQKDDEDCSVHDFVKEIIDMASTALKSKSQPESEVAAPTSLTQIKEKVLEHSHRPIHLRKGDFYSYLSLSSHDSDCGEVTNYIDEKSSTPLPPDAVDSGLDDKEDMDCFFEACVEDEPVNEEAGLPGALPNESAIEDGAEQKSEQKTASSPVLSDKTDLVPLSGLSPQKGADDAKEGDDVSHTSQGCAESTEPTTPSGKANAEGRSRMQGVSATPEENAASAKPKIQAFSLNAKQPKGKVAMRYPSPQTLTCKEKLVNFHEDRHSNM
# modifications: left off: small tags and cut ends
# B5: rat mAKAP 1835-2312: GFP-fusion fragment of rat mAKAP (protein)
# chain: ANPSDTLDIEALLNGSIRCLSENNGNGKTPPRTHGSGTKGENKKSTYDVSKDPHVADMENGNIESTPEREREKPQGLPEVSENLASNVKTISESELSEYEAVMDGSEDSSVARKEFCPPNDRHPPQMGPKLQHPENQSGDCKPVQNPCPGLLSEAGVGSRQDSNGLKSLPNDAPSGARKPAGCCLLEQNETEESASISSNASCCNCKPDVFHQKDDEDCSVHDFVKEIIDMASTALKSKSQPESEVAAPTSLTQIKEKVLEHSHRPIHLRKGDFYSYLSLSSHDSDCGEVTNYIDEKSSTPLPPDAVDSGLDDKEDMDCFFEACVEDEPVNEEAGLPGALPNESAIEDGAEQKSEQKTASSPVLSDKTDLVPLSGLSPQKGADDAKEGDDVSHTSQGCAESTEPTTPSGKANAEGRSRMQGVSATPEENAASAKPKIQAFSLNAKQPKGKVAMRYPSPQTLTCKEKLVNFHEDRHSNM
# modifications: left off: large carriers
# What was measured:
# [1] = tested on: adult rat ventricular myocytes (ARVM); assay: ARVM morphologic hypertrophy (cell width and length by immunocytochemistry); format: cell-based; conditions: for PE-induced ARVM hypertrophy / basal ARVM morphology: adenoviral expression; for PE-induced ARVM hypertrophy: 20 μM PE 24 hours; for basal ARVM morphology: no drug
# Method: Adult rat ventricular myocyte isolation and culture: 2-3 month old rats were anesthetized using Ketamine (80-100 mg/kg) and Xylazine (5-10 mg/kg) IP following 1000 U heparinization for cardiac excision. The heart was transferred immediately into chilled perfusion buffer (NaCl 120 mM, KCl 5.4 mM, Na2HPO4·7H2O 1.2 mM, NaHCO320.0 mM, MgCl2·6H2O 1.6 mM, Taurine 5 mM, Glucose 5.6 mM, 2,3-Butanedione monoxime 10 mM) pre-equilibrated with 95% O2 and 5% CO2. After removal of extraneous tissue, the heart was attached via the aorta to a Harvard Langendorff apparatus cannula. Ca^2+-free perfusion was used to flush out remaining blood with a constant rate of 8-10 mL/min at 37° C. The heart was then digested through circulatory perfusion with 50 mL perfusion buffer containing 125 mg type II collagenase (Worthington, 245 U/mg), 0.1 mg protease (Sigma type XIV) and 0.1% BSA. After perfusion, the atria were removed and the ventricular myocytes dissociated by slicing and repetitive pipetting. The debris was filtered by a 200 μm nylon mesh, and the myocytes collected by one minute centrifugation at 50 g. Ca^2+ concentration in the buffer was gradually recovered to 1.8 mM and the myocytes were resuspended in ACCT medium (M199 Medium (Invitrogen 11150-059), Creatine 5 mM, L-carnitine 2 mM, Taurine 5 mM, HEPES 25 mM, 2,3-Butanedione monoxime 10 mM, BSA 0.2% and 1×Insulin-Transferrin-Selenium Supplement) and plated on 10 μg/ml laminin pre-coated dishes. Cells were washed with ACCT medium 1.5 hours after plating and subjected to adenoviral infection or siRNA transfection, in which 100-200 Multiplicity of Infection (MOI) of adenovirus and 100 nmol/L siRNA mixed with Dharmafect1 (Dharmacon) were used, respectively. Adrenergic agonists were added the next day, with biochemical assay and morphological measurement performed after 24 hours of stimulation.
# Immunocytochemistry: Myocytes on coverslips were fixed in 3.7% formaldehyde in PBS for 1 hour, permeabilized with 0.3% Triton X-100, and blocked in PBS containing 0.2% BSA and 1% horse serum. The slides were then sequentially incubated for 1 hour with primary and Alexa fluorescent dye-conjugated specific-secondary antibodies (Invitrogen, 1:1000) diluted in blocking buffer. The slips were washed three times with blocking buffer. 1 μg/mL Hoechst 33258 was included in the last wash stop to label nuclei. Slides were sealed in SlowFade Gold antifade buffer (Invitrogen, S36938) for fluorescent microscopy. Wide-field images were acquired using a Leica DM4000 Microscope.
# PDE4D3 Ser-54 = PDE4D3 Ser-54 phosphorylation in mAKAP immunoprecipitates from transfected HEK293 cells (phospho-specific immunoblot); format: cell-based
# PP2A-A subunit = molecular target: T1, PP2A-A subunit (Homo sapiens, UniProt P30153); assay: GST-PP2A-A pull-down of GFP-tagged mAKAP fragments expressed in HEK293 cells; format: binding; conditions: GFP-tagged fragments in HEK293 cell extracts
# T1 construct: made in house; host or cells: bacteria
# Method: GST-pulldowns—Glutathione resin adsorbed with PP2A-A subunit GST fusion protein or GST control protein were incubated with HEK293 cell extracts. After an overnight incubation, the beads were washed three times. Bound proteins were analyzed by immunoblotting.
# mAKAP residues 2083-2319 contain the PP2A binding domain. In order to map the PP2A binding site on mAKAP, a bacterially-expressed PP2A-A subunit GST-fusion protein was used to pull down GFP-tagged fragments of mAKAP expressed in HEK293 cells (FIGS. 10A & B). GST-PP2A-A consistently pulled down only fragments of mAKAP containing a domain C-terminal to residue 2085.
# PP2A = molecular target: T2, PP2A (Homo sapiens, UniProt P30153+P67775); assay: myc-tag immunoprecipitation of mAKAP fragments from HEK293 cells with phosphatase assay; format: binding; conditions: myc-tagged fragments expressed in HEK293 cells
# T2 construct: endogenous in cells; host or cells: HEK293
# Method: Immunoprecipitation—HEK293 cells were used in this project as a heterologous system lacking mAKAP in which the various wildtype and mutant proteins could be easily expressed. Cells cultured on 60 mm plates were transfected at 50%-70% confluency by the calcium phosphate method, using 6 μg of each DNA construct per plate. Cells were harvested 24 hours after transfection in 0.5 ml HSE buffer (HEPES, pH 7.4, 150 mM NaCl, 5 mM EDTA, 1% Triton X-100 and protease inhibitors). Supernatants were incubated with 3 μg antibody and 15 μl prewashed protein A- or G-agarose beads. Following overnight incubation at 4° C., the immunoprecipitates were washed three times with the same buffer. Bound proteins were analyzed by immunoblotting.
# To measure phosphatase activity, immunoprecipitated protein complexes were washed twice in HSE buffer and once in PP2A reaction buffer. The immunoprecipitates were incubated for 30 minutes at 30° C. in 20 μl PP2A assay buffer containing 100,000 cpm [^32P]histone in the presence and absence of inhibitors. The PP2A inhibitor (Calbiochem) was used at a concentration of 30 nM. Purified I-1 was phosphorylated by PKA before using as a specific PP1 inhibitor. Reactions were terminated by the addition of 100 μl 20% TCA followed by 10 min centrifugation. TCA supernatants containing released ^32PO4 were measured by scintillation counting. […]
# T1 sequence (P30153 whole entry, the tested form may be a part): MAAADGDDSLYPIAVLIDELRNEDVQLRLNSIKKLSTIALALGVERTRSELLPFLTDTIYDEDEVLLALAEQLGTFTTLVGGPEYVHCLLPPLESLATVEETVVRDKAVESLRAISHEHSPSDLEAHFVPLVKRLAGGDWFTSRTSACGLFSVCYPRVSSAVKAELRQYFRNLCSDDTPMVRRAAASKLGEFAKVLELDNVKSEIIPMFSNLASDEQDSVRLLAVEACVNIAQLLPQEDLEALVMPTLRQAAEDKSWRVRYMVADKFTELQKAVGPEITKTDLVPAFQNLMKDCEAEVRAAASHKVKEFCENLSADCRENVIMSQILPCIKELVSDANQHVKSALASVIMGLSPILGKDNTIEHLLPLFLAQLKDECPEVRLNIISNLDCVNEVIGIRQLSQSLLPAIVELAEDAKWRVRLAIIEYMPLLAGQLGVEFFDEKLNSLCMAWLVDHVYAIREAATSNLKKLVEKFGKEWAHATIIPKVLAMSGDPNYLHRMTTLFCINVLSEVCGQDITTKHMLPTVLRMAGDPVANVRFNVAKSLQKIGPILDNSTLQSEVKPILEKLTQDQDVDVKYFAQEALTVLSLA
# T2 sequence (P67775 whole entry, the tested form may be a part): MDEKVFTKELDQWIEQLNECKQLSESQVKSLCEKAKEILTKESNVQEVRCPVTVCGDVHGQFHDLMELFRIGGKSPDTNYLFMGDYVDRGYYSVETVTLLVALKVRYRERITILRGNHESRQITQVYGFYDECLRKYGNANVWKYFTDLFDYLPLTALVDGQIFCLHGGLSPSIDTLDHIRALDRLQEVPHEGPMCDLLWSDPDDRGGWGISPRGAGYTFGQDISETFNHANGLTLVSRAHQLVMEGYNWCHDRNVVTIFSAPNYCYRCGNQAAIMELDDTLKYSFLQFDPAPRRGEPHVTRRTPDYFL
# T2 sequence (P30153 whole entry, the tested form may be a part): as the sequence (P30153 whole entry, the tested form may be a part) above
molecule,measurement,setting,value
"CNC[C@H](O)c1cccc(O)c1 [PE, phenylephrine, reference compound]",decrease in ARVM length/width ratio,"[1]; 20 μM PE, 24 hours",8-14%
same,increase in ARVM width,"[1]; 20 μM PE, 24 hours",8-10%
"C=C[C@@]1(C)CC(=O)[C@]2(O)[C@@]3(C)[C@@H](O)CCC(C)(C)[C@@H]3[C@H](O)[C@H](OC(C)=O)[C@@]2(C)O1 [Fsk, forskolin]",further enhancement of PDE4D3 Ser-54 phosphorylation by forskolin,"PDE4D3 Ser-54; 5 μM Fsk 10 min, in the presence of OA",1.8 fold
same,"PDE4D3 Ser-54 phosphorylation, forskolin alone","PDE4D3 Ser-54; 5 μM Fsk, absence of phosphatase inhibition",no significant effect
"CC(C)NCC(O)c1ccc(O)c(O)c1 (stereo not drawn) [Iso, isoproterenol, reference compound]",ARVM length and width under chronic β-adrenergic stimulation,"[1]; 10 μM Iso, 24 hours",increased both ARVM length and width
B1,binding to GST-PP2A-A (pull-down),PP2A-A subunit,bound GST-PP2A-A
B2,PE-induced ARVM hypertrophy,[1],did not enhance nor diminish
same,basal ARVM morphology,[1],increased ARVM width
B3,PE-induced ARVM hypertrophy,[1],inhibited the PE-induced concentric hypertrophy
same,basal ARVM morphology,[1],did not affect basal myocyte size
B4,co-immunoprecipitation with OA-sensitive phosphatase activity,PP2A,co-immunoprecipitated with OA-sensitive phosphatase activity
B5,binding to GST-PP2A-A (pull-down),PP2A-A subunit,bound GST-PP2A-A
